Data reported in US7135170B2 (ZymoGenetics, Inc., priority 2002, dated 2006).

What was measured:
[1] = target: T1, zcyto24 (Mus musculus, UniProt Q4VK74); test: Soluble receptor inhibition of ligand-induced ISRE signaling, 293 HEK cells overexpressing zcytor19: zcyto24; format: cell-based; details: ligand Zcyto24 10 ng/ml; soluble receptor 10 micrograms/ml; 4-hour
T1 construct: The mature polypeptide comprises amino acid residue 29 (Asp) to amino acid residue 202 (Val)
T1 sequence (Q4VK74 20-193): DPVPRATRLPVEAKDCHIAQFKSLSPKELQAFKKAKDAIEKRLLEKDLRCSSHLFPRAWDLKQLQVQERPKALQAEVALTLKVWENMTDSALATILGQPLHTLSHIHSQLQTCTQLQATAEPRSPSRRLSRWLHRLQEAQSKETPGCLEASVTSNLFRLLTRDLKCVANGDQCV
From the text: (§1) A signal transduction reporter assay can be used to show the inhibitor properties of zcytor19-Fc4 homodimeric and zcytor19-Fc/CRF2-4-Fc heterodimeric soluble receptors on zcyto20, zcyto21and zcyto24 signaling. Human embryonal kidney (HEK) cells overexpressing the zcytor19 receptor are transfected with a reporter plasmid containing an interferon-stimulated response element (ISRE) driving transcription of a luciferase reporter gene. Luciferase activity following stimulation of transfected cells with ligands (including zcyto20 (SEQ ID NO:18), zcyto21 (SEQ ID NO:20), zcyto24 (SEQ ID NO:8)) reflects the interaction of the ligand with soluble receptor.
(§2) 293 HEK cells overexpressing zcytor19 were transfected as follows: 700,000 293 cells/well (6 well plates) were plated approximately 18 h prior to transfection in 2 milliliters DMEM+10% fetal bovine serum. Per well, 1 microgram pISRE-Luciferase DNA (Stratagene) and 1 microgram pIRES2-EGFP DNA (Clontech,) were added to 6 microliters Fugene 6 reagent (Roche Biochemicals) in a total of 100 microliters DMEM. This transfection mix was added 30 minutes later to the pre-plated 293 cells. Twenty-four hours later the transfected cells were removed from the plate using trypsin-EDTA and replated at approximately 25,000 cells/well in 96 well microtiter plates. Approximately 18 h prior to ligand stimulation, media was changed to DMEM+0.5% FBS.
(§3) The signal transduction reporter assays were done as follows: Following an 18 h incubation at 37° C. in DMEM+0.5% FBS, transfected cells were stimulated with 10 ng/ml zcyto20, zcyto2l or zcyto24 and 10 micrograms/ml of the following soluble receptors; human zcytor19-Fc homodimer, human zcytor19-Fc/human CRF2-4-Fc heterodimer, human CRF2-4-Fc homodimer, murine zcytor19-Ig homodimer. Following a 4-hour incubation at 37° C., the cells were lysed, and the relative light units (RLU) were measured on a luminometer after addition of a luciferase substrate. The results obtained are shown as the percent inhibition of ligand-induced signaling in the presence of soluble receptor relative to the signaling in the presence of PBS alone.

[2] = target: T2, zcyto20 (Homo sapiens, UniProt Q8IZJ0); test: Soluble receptor inhibition of ligand-induced ISRE signaling, 293 HEK cells overexpressing zcytor19: zcyto20; format: cell-based; details: for Percent Inhibition of Ligand-induced ISRE Signaling by Soluble Receptors: ligand Zcyto20 10 ng/ml, soluble receptor 10 micrograms/ml, 4-hour; for inhibition of zcyto20, zcyto21 and zcyto24-induced signaling: text summary over the three ligands
T2 sequence (Q8IZJ0 26-200): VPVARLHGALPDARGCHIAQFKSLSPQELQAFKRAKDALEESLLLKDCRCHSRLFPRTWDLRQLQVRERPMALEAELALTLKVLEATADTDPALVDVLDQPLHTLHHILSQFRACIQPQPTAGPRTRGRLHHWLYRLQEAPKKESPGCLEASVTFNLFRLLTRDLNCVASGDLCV
From the text: as §1, §2, §3

[3] = target: zcyto21 (Homo sapiens, UniProt Q8IU54); test: Soluble receptor inhibition of ligand-induced ISRE signaling, 293 HEK cells overexpressing zcytor19: zcyto21; format: cell-based; details: ligand Zcyto21 10 ng/ml; soluble receptor 10 micrograms/ml; 4-hour
From the text: as §1, §2, §3

[4] = system: ISG gene expression (OAS, Pkr, Mx1) in liver, spleen and blood; test: ISG gene expression in liver, spleen and blood of injected mice (real-time PCR); format: in vivo, mouse; details: liver, 100 μg i.v.; for PKR: mice (Naive 3.70); for OAS: mice (Naive 6.60); for Mx1: mice (Naive 10.98)
Experimental: Mice were sacrificed at various time points (1 hr-48 hr). Spleens and livers were isolated from mice, and RNA was isolated. RNA was also isolated from the blood cells. The cells were pelleted and RNA isolated from pellets using RNAEasy®-kit (Qiagen). RNA was treated with DNase (Amicon) to rid RNA of any contaminating DNA. cDNA was generated using Perkin-Elmer RT mix (Perkin-Elmer). ISG gene induction was measured by real-time PCR using primers and probes specific for mouse OAS, Pkr and Mx1. To obtain quantitative data, HPRT real-time PCR was duplexed with ISG PCR. A standard curve was calculated using known amounts of IFN-stimulated mouse PBLs. All data are shown as expression relative to internal HPRT expression.
Results shown are fold expression relative to HPRT gene expression. […] The data shown is the average expression from 5 different animals/group.
Mice were injected with 100 μg of proteins i.v. Data shown is fold expression over HPRT expression from livers of mice. Similar data was obtained from blood and spleens of mice.

In the case of “HuCRF2-4-Fc: human CRF2-4-Fc homodimeric soluble receptor”, the “Percent Inhibition of Ligand-induced ISRE Signaling by Soluble Receptors” value (“Percent Inhibition” below) [1] is reported as 82%, the “Percent Inhibition” value [2] is reported as 80% and the “inhibition of zcyto20, zcyto21 and zcyto24-induced signaling” value [2] is reported as “No significant effects”. For the same molecule, the “Percent Inhibition” value [3] was 79%.

For “Huzcytor19-Fc/huCRF2-4-Fc: human zcytor19-Fc/human CRF2-4-Fc heterodimeric soluble receptor”, the “Percent Inhibition” value [1] was 47%, the “Percent Inhibition” value [2] was 16% and the “Percent Inhibition” value [3] was 16%.

B1: MetIL-29-PEG: E. coli derived IL-29 with N-terminal Met, conjugated to PEG (conjugate, UniProt Q8IU54 20-200, looked up)
Interferon lambda-1: GPVPTSKPTTTGKGCHIGRFKSLSPQELASFKKARDALEESLKLKNWSCSSPVFPGNWDLRLLQVRERPVALEAELALTLKVLEAAAGPALEDVLDQPLHTLHHILSQLQACIQPQPTAGPRPRGRLHHWLHRLQEAPKKESAGCLEASVTFNLFRLLTRDLKYVADGNLCLRTSTHPEST
modifications: N-terminal Met; PEG
notes: E. coli derived IL-29 with N-terminal Met, conjugated to PEG
For B1, the PKR ([4]; 3 hr) was 18.24 fold expression over HPRT expression, the OAS ([4]; 3 hr) was 91.29 fold expression over HPRT expression and the Mx1 ([4]; 3 hr) was 537.51 fold expression over HPRT expression. The PKR ([4]; 6 hr) was 13.93 fold expression over HPRT expression, the OAS ([4]; 6 hr) was 65.93 fold expression over HPRT expression and the Mx1 ([4]; 6 hr) was 124.99 fold expression over HPRT expression. The PKR ([4]; 12 hr) was 4.99 fold expression over HPRT expression, the OAS ([4]; 12 hr) was 54.04 fold expression over HPRT expression and the Mx1 ([4]; 12 hr) was 33.58 fold expression over HPRT expression. The PKR ([4]; 24 hr) was 3.77 fold expression over HPRT expression, the OAS ([4]; 24 hr) was 20.81 fold expression over HPRT expression and the Mx1 ([4]; 24 hr) was 35.82 fold expression over HPRT expression.

B2: Huzcytor19-Fc: human zcytor19-Fc homodimeric soluble receptor (protein)
chain: RPRLAPPQNVTLLSQNFSVYLTWLPGLGNPQDVTYFVAYQSSPTRRRWREVEECAGTKELLCSMMCLKKQDLYNKFKGRVRTVSPSSKSPWVESEYLDYLFEVEPAPPVLVLTQTEEILSANATYQLPPCMPPLDLKYEVAFWKEGAGNKTLFPVTPHGQPVQITLQPAASEHHCLSARTIYTFSVPKYSKFSKPTCFLLEVPEAN
modifications: left off: a dimerising Fc or GST
notes: human zcytor19-Fc homodimeric soluble receptor
With B2 the “Percent Inhibition” value [1] was 90%, the “Percent Inhibition” value [2] was 92% and the “Percent Inhibition” value [3] was 45%.

B3: Muzcytor19-Ig: murine zcytor19-Ig homodimeric soluble receptor (protein)
chain: RPRLAPPRNVTLFSQNFTVYLTWLPGLGSPPNVTYFVTYQSYIKTGWRPVEHCAGIKALVCPLMCLKKLNLYSKFKGRVQAASAHGRSPRVESRYLEYLFDVELAPPTLVLTQMEKILRVNATYQLPPCMPSLELKYQVEFWKEGLGSKTLFPDTPYGQPVQIPLQQGASRRHCLSARTVYTLIDIKYSQFSEPSCIFLEAPGDKRA
modifications: left off: small tags and cut ends
notes: murine zcytor19-Ig homodimeric soluble receptor
B3 was tested, and the “Percent Inhibition” value [1] was 89%, the “Percent Inhibition” value [2] was 91% and the “inhibition of zcyto20, zcyto21 and zcyto24-induced signaling” value [2] was “No significant effects”. For the same molecule, the “Percent Inhibition” value [3] was 103%.
